From the Immune Epitope Database (IEDB)

What was measured:
[1] = target: HLA-A*68:02; experiment: IEDB peptide-MHC binding, purified MHC/competitive/radioactivity; ≥ and ≤ were set here for values at or beyond the usual limits of such assays
[2] = target: HLA-A*02:03; experiment: IEDB peptide-MHC binding, cellular MHC/competitive/fluorescence; ≥ and ≤ were set here for values at or beyond the usual limits of such assays
[3] = target: HLA-A*02:06; experiment: as above
[4] = target: HLA-A*02:02; experiment: as above
[5] = target: HLA-A*02:01; experiment: as above
[6] = target: HLA-A*02:01; experiment: IEDB peptide-MHC binding, purified MHC/competitive/radioactivity; ≥ and ≤ were set here for values at or beyond the usual limits of such assays; conditions: source organism: Vaccinia virus WR
[7] = target: HLA-A*68:02; experiment: IEDB peptide-MHC binding, cellular MHC/competitive/fluorescence; ≥ and ≤ were set here for values at or beyond the usual limits of such assays; conditions: source organism: Vaccinia virus WR
[8] = source organism: Influenza A virus
[9] = source organism: Vaccinia virus WR

What does the source list for TVQIIKLL?
IC50 [1, 8]: 1.38 µM; IC50 [2, 8]: ≥ 70 µM; IC50 [3, 8]: 51.8 µM; IC50 [4, 8]: 43.8 µM; IC50 [5, 8]: 47.2 µM

Which results are given for NVTVTHSV?
IC50 [1, 8]: 1.27 µM; IC50 [2, 8]: 14.6 µM; IC50 [3, 8]: 18.6 µM; IC50 [4, 8]: 60.5 µM; IC50 [5, 8]: 22.6 µM

For DVNSVQFSI, which IC50 [1, 9] is on record?
The IC50 was 0.026 µM.

And the IC50 [2, 9]?
The IC50 was 16.2 µM.

And the IC50 [3, 9]?
Its IC50 is 16.9 µM.

What about the IC50 [4, 9] of the same sequence?
The IC50 was 10.4 µM.

And the IC50 [5, 9]?
Its IC50 is 11.5 µM.

With NITHTNITTL as the sequence, how does the IC50 [1, 9] read?
The IC50 was 4.91 µM.

What about the IC50 [2, 9] of the same sequence?
Its IC50 is 5.02 µM.

What about the IC50 [3, 9] of the same sequence?
Its IC50 is 8.17 µM.

What about the IC50 [4, 9] of the same sequence?
Its IC50 is 10.4 µM.

What about the IC50 [5, 9] of the same sequence?
Its IC50 is 10.1 µM.

Which IC50 [1, 9] does the source give for CTEETKRNI here?
The IC50 was 3.92 µM.

And the IC50 [2, 9]?
Its IC50 is at least 70 µM.

And the IC50 [3, 9]?
Its IC50 is at least 70 µM.

And the IC50 [4, 9]?
Its IC50 is at least 70 µM.

What about the IC50 [5, 9] of the same sequence?
Its IC50 is at least 70 µM.

With ATCALVSDCA as the sequence, how does the IC50 [1, 9] read?
The IC50 was 0.018 µM.

What about the IC50 [2, 9] of the same sequence?
The IC50 was 23.4 µM.

And the IC50 [3, 9]?
Its IC50 is 9.14 µM.

What about the IC50 [4, 9] of the same sequence?
Its IC50 is 34.7 µM.

What about the IC50 [5, 9] of the same sequence?
The IC50 was 55.8 µM.

Which results are given for CVKYLLDNDI?
IC50 [1, 9]: 1.98 µM; IC50 [2, 9]: 5.67 µM; IC50 [3, 9]: 7.58 µM; IC50 [4, 9]: 31.8 µM; IC50 [5, 9]: 13 µM

Which IC50 [1, 9] does the source give for TINALVYFST here?
Its IC50 is 0.391 µM.

And the IC50 [2, 9]?
Its IC50 is 7.34 µM.

And the IC50 [3, 9]?
The IC50 was 62.7 µM.

And the IC50 [4, 9]?
The IC50 was 14.1 µM.

And the IC50 [5, 9]?
The IC50 was 5.16 µM.

Which results are given for DTCGASINIT?
IC50 [1, 9]: 1.93 µM; IC50 [2, 9]: ≥ 70 µM; IC50 [3, 9]: ≥ 70 µM; IC50 [4, 9]: 23.6 µM; IC50 [5, 9]: 42.6 µM

With LTHGADPNA as the sequence, how does the IC50 [1, 9] read?
Its IC50 is 1.37 µM.

What about the IC50 [2, 9] of the same sequence?
Its IC50 is 10.5 µM.

And the IC50 [3, 9]?
Its IC50 is 29.4 µM.

What about the IC50 [4, 9] of the same sequence?
Its IC50 is 19.4 µM.

And the IC50 [5, 9]?
The IC50 was at least 70 µM.

Which results are given for ETKRNIARHL?
IC50 [1, 9]: 0.721 µM; IC50 [2, 9]: 12.4 µM; IC50 [3, 9]: ≥ 70 µM; IC50 [4, 9]: 50 µM; IC50 [5, 9]: ≥ 70 µM

With TAIRAGYSI as the sequence, how does the IC50 [1, 9] read?
Its IC50 is 0.125 µM.

And the IC50 [2, 9]?
Its IC50 is 9.2 µM.

And the IC50 [3, 9]?
The IC50 was 7.69 µM.

And the IC50 [4, 9]?
The IC50 was 14.5 µM.

And the IC50 [5, 9]?
The IC50 was 26.6 µM.

Which IC50 [1, 9] does the source give for NIREGTHVLL here?
The IC50 was 2.53 µM.

And the IC50 [2, 9]?
The IC50 was 5.51 µM.

What about the IC50 [3, 9] of the same sequence?
Its IC50 is 34.6 µM.

What about the IC50 [4, 9] of the same sequence?
The IC50 was 8.88 µM.

And the IC50 [5, 9]?
The IC50 was 13.4 µM.

VVIVENDNVI was tested. Which IC50 [6] did it give?
The IC50 was 2.83 µM.

And the IC50 [7]?
The IC50 was 22.5 µM.

What about the IC50 [2, 9] of the same sequence?
Its IC50 is 10.2 µM.

What about the IC50 [3, 9] of the same sequence?
The IC50 was 10.8 µM.

What about the IC50 [4, 9] of the same sequence?
Its IC50 is 14.7 µM.

GLESIEQNLT was tested. Which IC50 [1, 9] did it give?
The IC50 was 1.44 µM.

What about the IC50 [2, 9] of the same sequence?
Its IC50 is 61.3 µM.

And the IC50 [3, 9]?
The IC50 was at least 70 µM.

And the IC50 [4, 9]?
The IC50 was 7.02 µM.

And the IC50 [5, 9]?
The IC50 was 34.4 µM.

EAFETQSGA was tested. Which IC50 [1, 9] did it give?
The IC50 was 0.104 µM.

And the IC50 [2, 9]?
The IC50 was at least 70 µM.

And the IC50 [3, 9]?
The IC50 was at least 50 µM.

And the IC50 [4, 9]?
Its IC50 is at least 70 µM.

What about the IC50 [5, 9] of the same sequence?
The IC50 was at least 70 µM.

What does the source list for ETNIGCAVNT?
IC50 [1, 9]: 0.022 µM; IC50 [2, 9]: 37 µM; IC50 [3, 9]: ≥ 70 µM; IC50 [4, 9]: ≥ 70 µM; IC50 [5, 9]: 58.4 µM
